Data taken from paper PMC10165364, “Pathological variants in TOP3A cause distinct disorders of mitochondrial and nuclear genome stability”.

Molecular target: T1, TOP3A WT (Homo sapiens, UniProt Q13472 16-934)
T1 sequence: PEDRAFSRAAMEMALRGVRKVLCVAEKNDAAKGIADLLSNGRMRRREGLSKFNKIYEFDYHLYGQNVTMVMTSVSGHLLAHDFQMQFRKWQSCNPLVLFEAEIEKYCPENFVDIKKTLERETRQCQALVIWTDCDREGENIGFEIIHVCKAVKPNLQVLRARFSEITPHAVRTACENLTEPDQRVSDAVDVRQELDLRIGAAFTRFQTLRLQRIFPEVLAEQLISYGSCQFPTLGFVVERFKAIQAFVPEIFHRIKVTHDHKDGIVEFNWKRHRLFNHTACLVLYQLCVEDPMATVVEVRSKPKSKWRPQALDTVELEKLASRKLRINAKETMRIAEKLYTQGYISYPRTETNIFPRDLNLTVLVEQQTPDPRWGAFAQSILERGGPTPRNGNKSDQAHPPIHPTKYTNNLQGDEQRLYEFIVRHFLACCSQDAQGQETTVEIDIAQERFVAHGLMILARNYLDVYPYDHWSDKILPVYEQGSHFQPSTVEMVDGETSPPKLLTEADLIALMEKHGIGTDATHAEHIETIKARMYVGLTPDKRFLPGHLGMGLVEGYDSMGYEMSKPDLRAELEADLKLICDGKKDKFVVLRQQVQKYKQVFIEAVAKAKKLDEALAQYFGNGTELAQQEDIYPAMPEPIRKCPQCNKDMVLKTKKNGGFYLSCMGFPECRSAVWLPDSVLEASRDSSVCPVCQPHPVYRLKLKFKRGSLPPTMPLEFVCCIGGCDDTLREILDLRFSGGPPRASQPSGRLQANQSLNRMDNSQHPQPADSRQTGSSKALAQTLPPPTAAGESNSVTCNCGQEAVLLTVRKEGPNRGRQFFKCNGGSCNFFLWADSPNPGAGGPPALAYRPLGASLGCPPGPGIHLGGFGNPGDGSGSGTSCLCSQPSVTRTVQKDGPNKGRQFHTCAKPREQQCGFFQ
Assay: EMSA; two shifted bands (two TOP3A molecules); 25 mM HEPES pH 7.5, 70 mM NaCl, 100 ug/ml BSA, 1 mM DTT, 10% glycerol; 10 fmol oligo, 0-250 fmol TOP3A in 20 ul; 37 C 15 min, then ice; 8% native PAGE in 0.5x TBE at 4 C
Conditions: protein: recombinant; tags: N-terminal TEV-cleavable 6xHis, cleaved; label: 5' 32P; single strand

B1: EMSA substrate 80-mer (ssDNA)
DNA: ACCACATTAACAACATAAAACCCTCATTCACACGAGAAAACACCCTCATGTTCATACACCTATCCCCCATTCTCCTCCTA
  binding result: binds
